Experimental data as given in patent US20220387586A1 (Hoffmann-La Roche, published 2022).
Values belong to the binder of their own block, whether it stands above or below them.

Columns and labels:
[1] = target: T1, PD1 on PD1+LAG3+ human U2OS cells (UniProt Q15116 25-288); test: cellular PD1/LAG3 dimerization assay, 7500 PD1+LAG3+ U2OS cells a well, 20 h at 37 °C, chemoluminescence; the signal needs PD1 and LAG3 bound at once
Procedure: (§1) Next, assay plates were equilibrated to room temperature and a substrate/buffer mix (PathHunterFlash detection reagent, Discoverx) was added and again incubated for 4h. For measuring chemoluminescence induced upon simultaneous binding and dimerization a SpectraMax L plate reader (Molecular Devices) was used.

[2] = target: T2, LAG3 on PD1+LAG3+ human U2OS cells (Homo sapiens (Human), UniProt P18627 23-525); test: as above
T2 construct: also called cellular LAG3 (dimerization assay); not shown: subunit of the reporter enzyme fused to the cytosolic C-terminus
T2 sequence: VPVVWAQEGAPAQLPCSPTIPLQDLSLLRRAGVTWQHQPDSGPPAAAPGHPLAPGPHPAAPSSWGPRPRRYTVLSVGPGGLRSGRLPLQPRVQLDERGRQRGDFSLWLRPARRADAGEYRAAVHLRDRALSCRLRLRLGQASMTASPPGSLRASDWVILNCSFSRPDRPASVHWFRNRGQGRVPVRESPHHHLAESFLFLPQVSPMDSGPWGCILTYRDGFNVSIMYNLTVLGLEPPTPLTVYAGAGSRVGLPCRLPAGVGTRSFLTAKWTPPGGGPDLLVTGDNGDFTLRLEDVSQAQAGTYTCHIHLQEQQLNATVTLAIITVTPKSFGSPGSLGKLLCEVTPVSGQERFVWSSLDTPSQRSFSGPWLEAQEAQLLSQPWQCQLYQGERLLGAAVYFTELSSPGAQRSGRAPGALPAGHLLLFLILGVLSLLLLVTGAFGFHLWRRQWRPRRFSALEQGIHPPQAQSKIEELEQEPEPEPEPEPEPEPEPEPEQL
Procedure: as §1

[3] = target: T3, recombinant Human LAG-3 Fc Chimera Protein (R&D Systems, 2319-L3) (human, UniProt P18627 29-450); test: ELISA on coated Human LAG-3 Fc Chimera (rel. EC50)
T3 construct: Bought protein; also called huLAG3; not shown: Fc part of the chimera
T3 sequence: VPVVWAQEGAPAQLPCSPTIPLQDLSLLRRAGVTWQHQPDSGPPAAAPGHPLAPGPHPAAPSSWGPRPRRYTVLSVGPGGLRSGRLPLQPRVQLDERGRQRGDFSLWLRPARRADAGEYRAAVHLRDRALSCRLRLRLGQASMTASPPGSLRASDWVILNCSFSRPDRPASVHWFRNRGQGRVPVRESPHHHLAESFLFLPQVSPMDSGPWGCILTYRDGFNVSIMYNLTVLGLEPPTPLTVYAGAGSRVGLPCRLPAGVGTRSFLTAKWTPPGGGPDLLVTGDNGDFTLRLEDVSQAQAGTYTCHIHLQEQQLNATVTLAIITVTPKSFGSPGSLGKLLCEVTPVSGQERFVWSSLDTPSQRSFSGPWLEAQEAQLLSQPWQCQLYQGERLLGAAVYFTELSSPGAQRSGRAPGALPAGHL
How it was run: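 Wells blocked 1 h at RT in PBS + 2% BSA + 0.05% Tween 20; bound antibody detected with goat anti-human Ig κ-HRP (1:2000, 1 h RT), then TMB substrate for 2-10 min. Absorbance read at 370/492 nm.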

[4] = target: T4, LAG3 on cells (recombinant CHO cells expressing Lag3) (human, UniProt P18627 29-525); test: cell-based or functional assay
T4 sequence: T2 sequence

[5] = target: full-length human PD1 on cells (human, UniProt Q15116 25-288); test: cell-based or functional assay
[6] = target: T1, PD1 on PD1+LAG3+ human U2OS cells; test: cell-based or functional assay

T1 sequence (Q15116 25-288): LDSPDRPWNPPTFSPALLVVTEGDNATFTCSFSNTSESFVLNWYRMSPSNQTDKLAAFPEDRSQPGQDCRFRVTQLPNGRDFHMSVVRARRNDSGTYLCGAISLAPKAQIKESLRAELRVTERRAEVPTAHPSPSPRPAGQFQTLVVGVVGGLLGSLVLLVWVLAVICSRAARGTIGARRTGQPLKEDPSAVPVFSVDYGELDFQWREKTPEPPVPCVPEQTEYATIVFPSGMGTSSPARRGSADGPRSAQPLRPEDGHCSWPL
Chain of full-length human PD1 on cells (Q15116 25-288 limits assumed): as the sequence (Q15116 25-288) above

EC50 (read off the curve) [1]: ~0.05 nM | EC50 (read off the curve) [2]: ~0.05 nM | EC50 [3]: 0.18 nM | EC50 [nM], PD-1 & LAG-3 combo reporter assay (NFAT luciferase) [4]: 3.1 nM | EC50 [nM], PD-1 & LAG-3 combo reporter assay (NFAT luciferase) [5]: 3.1 nM | EC50 [pM], dimerization binding assay (chemoluminescence) [6]: 41 pM
B1: PD1/LAG3 0927 (bispecific antibody, human IgG1, kappa, L234A L235A)
heavy 1: not shown
heavy 2: EVQLLESGGGLVQPGGSLRLSCAASGFIFDDYTMNWVRQAPGKGLEWVAVISWDGGGTYYTDSVKGRFTISRDDFKNTLYLQMNSLRAEDTAVYYCAKGLTDTTLYGSDYWGQGTLVTVSSASTKGPSVFPLAPSSKSTSGGTAALGCLVEDYFPEPVTVSWNSGALTSGVHTFPAVLQSSGLYSLSSVVTVPSSSLGTQTYICNVNHKPSNTKVDEKVEPKSCDKTHTCPPCPAPEAAGGPSVFLFPPKPKDTLMISRTPEVTCVVVDVSHEDPEVKFNWYVDGVEVHNAKTKPREEQYNSTYRVVSVLTVLHQDWLNGKEYKCKVSNKALGAPIEKTISKAKGQPREPQVCTLPPSRDELTKNQVSLSCAVKGFYPSDIAVEWESNGQPENNYKTTPPVLDSDGSFFLVSKLTVDKSRWQQGNVFSCSVMHEALHNHYTQKSLSLSPGK
light 1: EVQLLESGGGLVQPGGSLRLSCAASGFSFSSYTMSWVRQAPGKGLEWVATISGGGRDIYYPDSVKGRFTISRDNSKNTLYLQMNSLRAEDTAVYYCVLLTGRVYFALDSWGQGTLVTVSSASVAAPSVFIFPPSDEQLKSGTASVVCLLNNFYPREAKVQWKVDNALQSGNSQESVTEQDSKDSTYSLSSTLTLSKADYEKHKVYACEVTHQGLSSPVTKSFNRGEC
light 2: not shown
notes: 1+1 CrossMAb Vh-VL, knobs into holes, IgG1 PGLALA

EC50 [3]: 0.07 nM | EC50 [pM], dimerization binding assay (chemoluminescence) [6]: 76 pM
B2: PD1/LAG3 0799 (bispecific antibody, human IgG1, kappa, L234A L235A)
heavy 1: not shown
heavy 2: EVQLVESGGGLVQPGGSLRLACAASGFTFSDYAMSWVRQAPGKGLEWVSGIDNSGYYTYYTDSVKGRFTISRDDVKNTLYLQMNSLRAEDTAVYLCTKTHSGLIVNDAFDIWGQGTMVTVSSASTKGPSVFPLAPSSKSTSGGTAALGCLVEDYFPEPVTVSWNSGALTSGVHTFPAVLQSSGLYSLSSVVTVPSSSLGTQTYICNVNHKPSNTKVDEKVEPKSCDKTHTCPPCPAPEAAGGPSVFLFPPKPKDTLMISRTPEVTCVVVDVSHEDPEVKFNWYVDGVEVHNAKTKPREEQYNSTYRVVSVLTVLHQDWLNGKEYKCKVSNKALGAPIEKTISKAKGQPREPQVCTLPPSRDELTKNQVSLSCAVKGFYPSDIAVEWESNGQPENNYKTTPPVLDSDGSFFLVSKLTVDKSRWQQGNVFSCSVMHEALHNHYTQKSLSLSPGK
light 1: B1 light 1
light 2: not shown
notes: as for B1
